# “And” between values parts separate entries of the source, which are not always exact repeats. Equal entries are not always repeated. Where two headings read alike, the source gives them in different places.
# T1: Smad7 PY peptide Ac-ELESPPPPYSRYPMD-NH2 (203-217) (human)
# T1 peptide: Ac-ELESPPPPYSRYPMD-NH2
# B1: Nedd4L WW1 domain (domain or fragment)
# chain: not shown
# B2: Smurf1 WW1-WW2 pair (domain or fragment)
# chain: SPELPEGYEQRTTVQGQVYFLHTQTGVSTWHDPRIPRDLNSVNCDELGPLPPGWEVRSTVSGRIYFVDHNNRTTQFTDPRLH
# B3: Smurf1 WW1-WW2 pair Arg243Ala (domain or fragment)
# chain: SPELPEGYEQATTVQGQVYFLHTQTGVSTWHDPRIPRDLNSVNCDELGPLPPGWEVRSTVSGRIYFVDHNNRTTQFTDPRLH
# B4: Smurf1 WW1-WW2 pair Gln247 and Gln249 to Glu (domain or fragment)
# chain: SPELPEGYEQRTTVEGEVYFLHTQTGVSTWHDPRIPRDLNSVNCDELGPLPPGWEVRSTVSGRIYFVDHNNRTTQFTDPRLH
# B5: Smurf1 WW1-WW2 pair Arg243Glu (domain or fragment)
# chain: SPELPEGYEQETTVQGQVYFLHTQTGVSTWHDPRIPRDLNSVNCDELGPLPPGWEVRSTVSGRIYFVDHNNRTTQFTDPRLH
# B6: Smurf1 WW1-WW2 pair Gln249Glu (domain or fragment)
# chain: SPELPEGYEQRTTVQGEVYFLHTQTGVSTWHDPRIPRDLNSVNCDELGPLPPGWEVRSTVSGRIYFVDHNNRTTQFTDPRLH
# B7: Smurf2 WW3 domain (297-333) (domain or fragment)
# chain: not shown
# B8: Nedd4L WW2-WW3 pair (domain or fragment)
# chain: TPGLPSGWEERKDAKGRTYYVNHNNRTTTWTRPIMQLAEDGASGSATNSNNHLIEPQIRRPRSLSSPTVTLSAPLEGAKDSPVRRAVKDTLSNPQSPQPSPYNSPKPQHKVTQSFLPPGWEMRIAPNGRPFFIDHNTKTTTWEDPRL
# B9: Nedd4L WW1-WW2 pair (domain or fragment)
# chain: not shown
# B10: Nedd4L WW2 domain (364-403) (domain or fragment)
# chain: not shown
# B11: Nedd4L WW2 domain Arg380Glu (domain or fragment)
# chain: not shown
# B12: Nedd4L WW2 domain Lys378Glu (domain or fragment)
# chain: not shown
# B13: Nedd4L WW2 domain Lys378/Arg380 to Glu (domain or fragment)
# chain: not shown
# B14: YAP WW1-WW2 pair (domain or fragment)
# chain: SSFEIPDDVPLPAGWEMAKTSSGQRYFLNHIDQTTTWQDPRKAMLSQMNVTAPTSPPVQQNMMNSASGPLPDGWEQAMTQDGEIYYINHKNKTTSWLDPRLDPR
# B15: Smurf2 WW2-WW3 pair (domain or fragment)
# chain: PPDLPEGYEQRTTQQGQVYFLHTQTGVSTWHDPRVPRDLSNINCEELGPLPPGWEIRNTATGRVYFVDHNNRTTQFTDPRLSAN
# B16: Nedd4L WW3-WW4 pair (domain or fragment)
# chain: SFLPPGWEMRIAPNGRPFFIDHNTKTTTWEDPRLKFPVHMRSKTSLNPNDLGPLPPGWEERIHLDGRTFYIDHNSKITQWEDPRL
# Legend:
# [1] = target: T1, Smad7 PY peptide Ac-ELESPPPPYSRYPMD-NH2 …; assay: ITC
# [2] = target: T1, Smad7 PY peptide Ac-ELESPPPPYSRYPMD-NH2 …; assay: ITC
# [3] = target: T1, Smad7 PY peptide Ac-ELESPPPPYSRYPMD-NH2 …; assay: ITC
# [4] = target: T1, Smad7 PY peptide Ac-ELESPPPPYSRYPMD-NH2 …; assay: ITC
# [5] = target: the molecule itself; assay: NMR
# [6] = target: the molecule itself; assay: native MS
binder,measurement,setting,value
"SSFEIPDDVPLPAGWEMAKTSSGQRYFLNHIDQTTTWQDPRKAM (domain or fragment, human, UniProt P46937 163-206, looked up) [YAP WW1 domain (residues 163-206)]",Kd,[1],6.9 ± 0.28 µM
"SSFEIPDDVPLPAGWEMAKTSSGERYFLNHIDQTTTWQDPRKAM (domain or fragment, human, UniProt P46937 163-206, looked up) [YAP WW1 domain Q186E]",fold reduction of affinity against wild-type YAP WW1,[2],2 fold
"SASGPLPDGWEQAMTQDGEIYYINHKNKTTSWLDPRLDPR (domain or fragment, human, UniProt P46937 227-266, looked up) [YAP WW2 domain (residues 227-266)]",fold weaker dissociation constant than YAP WW1,[1],9 fold
"SASGPLPDGWEQAMTQQGQIYYINHKNKTTSWLDPRLDPR (domain or fragment, human, UniProt P46937 227-266, looked up) [YAP WW2 domain Asp243 and Glu245 to Glutamine]",fold improvement of affinity against wild-type YAP WW2,[2],2 fold
B1,stoichiometry N,[1],1
B2,Kd,[1],1.7 ± 0.3 µM
same,stoichiometry N,[1],0.7
same,Kd,[3],0.7 ± 0.3 µM
same,Kd,[4],5 ± 0.3 µM
B3,fold reduction of affinity against the wild-type WW1-WW2 pair,[2],3 fold
B4,fold reduction of affinity against the wild-type WW1-WW2 pair,[2],3 fold
B5,fold reduction of affinity against the wild-type WW1-WW2 pair,[2],10 fold
B6,fold reduction of affinity against the wild-type WW1-WW2 pair,[2],3 fold
B7,Kd,[1],4.1 µM
same,stoichiometry N,[1],1
"GPLPPGWEIRNTATGEVYFVDHNNRTTQFTDPRLSAN (domain or fragment, human, UniProt Q9HAU4 297-333, looked up) [Smurf2 WW3 domain R312E]",Kd,[2],34.2 ± 1.6 µM
"DELGPLPPGWEVRSTVSGRIYFVDHNNRTTQFTDPRLH (domain or fragment, human, UniProt Q9HCE7-2 277-314, looked up) [Smurf1 WW2 domain (residues 277-314)]",Kd,[1],4.1 ± 0.6 µM
same,stoichiometry N,[1],1
"DELGPLPPGWEVRSTVSGEIYFVDHNNRTTQFTDPRLH (domain or fragment, human, UniProt Q9HCE7-2 277-314, looked up) [Smurf1 WW2 domain Arg295Glu]",Kd,[2],48.6 ± 6.4 µM
GPLPPGWEERIHLDGRTFYIDHNSKITQWEDPRL (domain or fragment) [Nedd4L WW4 domain],stoichiometry N,[1],1
B8,stoichiometry N,[1],2 equivalents of peptide per protein
"SPELPEGYEQRTTVQGQVYFLHTQTGVSTWHDPRIPRD (domain or fragment, human, UniProt Q9HCE7-2 233-270, looked up) [Smurf1 WW1 domain (residues 233-270)]",stoichiometry N,[5],2
B9,stoichiometry N,[1],1
B10,stoichiometry N,[1],1
B11,Kd,[2],15.4 ± 3.5 µM
B12,Kd,[2],23.5 ± 1.5 µM
B13,Kd,[2],27.3 ± 2.2 µM
B14,Kd,[1],9.8 ± 0.9 µM
same,stoichiometry N,[1],1
SFLPPGWEMRIAPNGRPFFIDHNTKTTTWEDPRL (domain or fragment) [Nedd4L WW3 domain],stoichiometry N,[1],1
B15,Kd,[1],1.7 ± 0.3 µM
same,Kd,[3],0.7 ± 0.3 µM
same,Kd,[4],5 ± 0.3 µM
same,stoichiometry N,[6],2 and 3
B16,stoichiometry N,[1],1

# From PMC3472128 (Structure (London, England : 1993), 2012)
